Reference: the supplement of paper PMC7125110
± gives the standard error. For part of these data: Variants at the floor of the assay were thinned out.

B1: glmS ribozyme (parent)
chain: AUAAAAGCGCCAGAACUACAGAAAUGUAGUUGACGAGGAGGAGGUUUAUCGAAUUUUCGGCGGAUGCCUCCAAA

Legend:
Details in all cases: with glucosamine-6-phosphate
glucosamine-6-phosphate [1] = variants of: B1; assay: kcat; higher = faster cleavage; RNA array
Outline: (§1)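 Barcoded ribozyme variants on sequenced MiSeq chips were transcribed in situ by E. coli RNA polymerase and followed at 37 °C through a hybridised Cy3 probe. Glucosamine-6-phosphate at 40 μM to 10 mM in HEPES/KCl/Mg(OAc)2 buffer was flowed in, and tiles were imaged over ~14 h. Signals were normalised to baseline and to non-cleaving reference variants, and per-tile medians were fit to one- or two-exponential decays to give kobs. Weighted Michaelis–Menten fits across concentrations gave kcat and KM.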

glucosamine-6-phosphate [2] = variants of: B1; assay: KM; higher = weaker cofactor use; RNA array
Outline: as §1

glucosamine-6-phosphate [3] = variants of: B1; assay: self-cleavage kobs at 40 uM GlcN6P; higher = faster cleavage; RNA array
Outline: as §1

glucosamine-6-phosphate [4] = variants of: B1; assay: self-cleavage kobs at 160 uM GlcN6P; higher = faster cleavage; RNA array
Outline: as §1

glucosamine-6-phosphate [5] = variants of: B1; assay: self-cleavage kobs at 640 uM GlcN6P; higher = faster cleavage; RNA array
Outline: as §1

glucosamine-6-phosphate [6] = variants of: B1; assay: self-cleavage kobs at 2500 uM GlcN6P; higher = faster cleavage; RNA array
Outline: as §1

glucosamine-6-phosphate [7] = variants of: B1; assay: self-cleavage kobs at 10000 uM GlcN6P; higher = faster cleavage; RNA array
Outline: as §1

Row | Variant | kcat (glucosamine-6-phosphate [1]) [s⁻¹] | KM (glucosamine-6-phosphate [2]) [µM] | self-cleavage kobs at 40 uM GlcN6P (glucosamine-6-phosphate [3]) [s⁻¹] | self-cleavage kobs at 160 uM GlcN6P (glucosamine-6-phosphate [4]) [s⁻¹] | self-cleavage kobs at 640 uM GlcN6P (glucosamine-6-phosphate [5]) [s⁻¹] | self-cleavage kobs at 2500 uM GlcN6P (glucosamine-6-phosphate [6]) [s⁻¹] | self-cleavage kobs at 10000 uM GlcN6P (glucosamine-6-phosphate [7]) [s⁻¹]
1 | U49G C70U | 0.001 ± 4.7e-05 | 1860 ± 160 | 2.78e-05 ± 1.2e-05 | 7.37e-05 ± 1.3e-05 | 0.000263 ± 3e-05 | 0.00059 ± 7.5e-05 | 0.000837 ± 7.5e-05
2 | A53C C70U | 0.00487 ± 0.0012 | 2220 ± 670 | 0.000105 ± 1.2e-05 | 0.000315 ± 2.6e-05 | 0.000893 ± 0.00013 | 0.00403 ± 0.0007 | 0.00392 ± 0.00044
3 | G9U A14G | 1.09e-05 ± 5.1e-06 |  | < 1e-05 |  |  | < 1e-05 | < 1e-05
4 | G32U C67A | 0.000412 ± 4.2e-05 | 4200 ± 780 |  |  | 5.83e-05 ± 6.7e-06 | 0.00014 ± 1.6e-05 | 0.000296 ± 2.2e-05
5 | G13U A14U | 0.000743 ± 0.00015 | 2270 ± 1000 |  | 8.56e-05 ± 2.3e-05 | 0.000174 ± 3.7e-05 | 0.000331 ± 4.6e-05 | 0.00066 ± 7.3e-05
6 | U46G U65C | 4.23e-05 ± 1.3e-06 | 1730 ± 260 |  |  |  |  | 3.6e-05 ± 7.3e-06
7 | A64G U69G C71A | 2.3e-05 ± 7.7e-06 |  |  |  |  |  | 
8 | A15G G32U | 0.00117 ± 2.6e-05 | 2990 ± 100 |  | 6.02e-05 ± 1.1e-05 | 0.000208 ± 2.6e-05 | 0.000525 ± 5.2e-05 | 0.000917 ± 0.00013
